Data taken from patent US20230235048A1.

Target: human sortilin on the cell surface (recombinant huSortilin on HEK 293 cells; endogenous on U251MG cells) (human), Q99523
Assay: flow cytometry, hPGRN-biotin on hSortilin HEK cells clone A (note under the bar chart)
Conditions: remark: other sources report otherwise

Sequence of human sortilin on the cell surface (recombinant huSortilin on HEK 293 cells; endogenous on U251MG cells) (human), Q99523 (Q99523 78-831): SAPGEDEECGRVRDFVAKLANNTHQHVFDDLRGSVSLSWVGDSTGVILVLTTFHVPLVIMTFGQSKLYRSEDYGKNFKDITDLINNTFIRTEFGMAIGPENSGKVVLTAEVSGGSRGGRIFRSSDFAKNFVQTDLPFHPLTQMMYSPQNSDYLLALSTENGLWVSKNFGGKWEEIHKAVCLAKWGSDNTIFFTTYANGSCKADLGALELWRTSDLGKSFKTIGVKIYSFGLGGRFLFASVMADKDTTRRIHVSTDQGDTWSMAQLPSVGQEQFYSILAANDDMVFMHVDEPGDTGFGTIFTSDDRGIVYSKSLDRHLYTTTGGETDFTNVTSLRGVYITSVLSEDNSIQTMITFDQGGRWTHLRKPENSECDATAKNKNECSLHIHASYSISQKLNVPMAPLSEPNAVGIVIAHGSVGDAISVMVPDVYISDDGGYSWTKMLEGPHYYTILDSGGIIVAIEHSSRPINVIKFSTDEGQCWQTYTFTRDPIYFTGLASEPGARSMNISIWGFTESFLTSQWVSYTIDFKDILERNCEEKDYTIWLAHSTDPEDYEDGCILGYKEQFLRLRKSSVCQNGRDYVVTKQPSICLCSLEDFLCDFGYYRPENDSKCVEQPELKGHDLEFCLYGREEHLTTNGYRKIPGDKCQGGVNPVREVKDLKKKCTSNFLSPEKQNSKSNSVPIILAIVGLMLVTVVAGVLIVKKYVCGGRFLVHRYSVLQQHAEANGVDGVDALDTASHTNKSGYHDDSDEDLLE

- ED50: 30 nM
B1: human progranulin, biotinylated (huPGRN-Biotin), P28799 18-593 (ligand, UniProt P28799 18-593, looked up)
chain: TRCPDGQFCPVACCLDPGGASYSCCRPLLDKWPTTLSRHLGGPCQVDAHCSAGHSCIFTVSGTSSCCPFPEAVACGDGHHCCPRGFHCSADGRSCFQRSGNNSVGAIQCPDSQFECPDFSTCCVMVDGSWGCCPMPQASCCEDRVHCCPHGAFCDLVHTRCITPTGTHPLAKKLPAQRTNRAVALSSSVMCPDARSRCPDGSTCCELPSGKYGCCPMPNATCCSDHLHCCPQDTVCDLIQSKCLSKENATTDLLTKLPAHTVGDVKCDMEVSCPDGYTCCRLQSGAWGCCPFTQAVCCEDHIHCCPAGFTCDTQKGTCEQGPHQVPWMEKAPAHLSLPDPQALKRDVPCDNVSSCPSSDTCCQLTSGEWGCCPIPEAVCCSDHQHCCPQGYTCVAEGQCQRGSEIVAGLEKMPARRASLSHPRDIGCDQHTSCPVGQTCCPSLGGSWACCQLPHAVCCEDRQHCCPAGYTCNVKARSCEKEVVSAQPATFLARSPHVGVKDVECGEGHFCHDNQTCCRDNRQGWACCPYRQGVCCADRRHCCPAGFRCAARGTKCLRREAPRWDAPLRDPALRQLL
modifications: here or on the partner: biotinylated at a ratio of 5:1 using EZ-Link NHS-PEG4-Biotin
